Measurements as given in publication PMC4605297.

Target: T1, SsOGT wild type (Sulfolobus solfataricus) (UniProt Q97VW7)
T1 sequence: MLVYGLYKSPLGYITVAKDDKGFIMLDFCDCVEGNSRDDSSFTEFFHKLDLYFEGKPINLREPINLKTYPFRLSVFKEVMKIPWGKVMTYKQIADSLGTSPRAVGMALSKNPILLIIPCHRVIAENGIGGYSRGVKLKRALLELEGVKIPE
Test: competition
Conditions: EMSA: 0-25 uM protein, 0.2 uM probe, 37 C 10 min, 10 ul, buffer as ref. 17, 8% native PAGE in 1X TBE pH 8.3, competition: BG-VG assay, 50 C under ref. …

Row | Sequence | Ki (O6-methylguanine at position 21 of strand 1) [nM] | Ki (O6-methylguanine at position 26 of strand 1) [nM]
1 | GGACACTGTACGTTAAGGCGGATCGAATTAGGATTAA / GGTTAATCCTAATTCGATCGCCTTAACGTACAGTGT [ds-UPm] | 280 | –
2 | GGCAGTAGGCCTAGCATGACAATCTGCATTGGTGATCACGG / CGCTCATCCACAATGCAGATTGTCATGCTAGGCCTACTGCC [ds-Fwdm26] | – | 830
